B1: N-terminal domain of human TNFR-1 associated death domain protein (N-TRADD), residues 1-169, wild type (other)
chain: MAAGQNGHEEWVGSAYLFVESSLDKVVLSDAYAHPQQKVAVYRALQAALAESGGSPDVLQMLKIHRSDPQLIVQLRFCGRQPCGRFLRAYREGALRAALQRSLAAALAQHSVPLQLELRAGAERLDALLADEERCLSCILAQQPDRLRDEELAELEDALRNLKCGSGAR
notes: Expressed in E. coli BL-21; monomeric (>95%) by SEC-HPLC; 15N or 15N/13C labelled for NMR; also called N-TRADD (1-169); wild-type N-TRADD; not shown: His tag introduced after aa169

Test [1] has as its target T1, N-TRADD (Homo sapiens, UniProt Q15628).
T1 construct: The polypeptide for N-TRADD (1-169) was overexpressed in BL-21 E. coli; His tag (C); made in house; host or cells: E. coli BL-21, vector pRSETB
T1 sequence (Q15628 1-169): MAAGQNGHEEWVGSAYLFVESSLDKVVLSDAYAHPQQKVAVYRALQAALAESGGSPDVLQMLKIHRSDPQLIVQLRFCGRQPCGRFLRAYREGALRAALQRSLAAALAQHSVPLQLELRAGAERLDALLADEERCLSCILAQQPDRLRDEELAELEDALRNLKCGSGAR
Put plainly: BIAcore experiment, CD40 peptide with N-TRADD. The class given is binding. Particulars: final peptide concentration approximately 15 mM; data not shown. A general note: In SPR one partner is held on a chip, and binding of the other changes the refractive index at the surface.

Test [2] concerns the target T1, N-TRADD. The test can be described thus: 1H-15N HSQC of N-TRADD with addition of peptide. The class given is binding. As to the method:
(§1) NMR Spectroscopy: All NMR spectra were collected on a 600 MHZ Varian Unity Plus spectrometer. For the backbone assignments, HNCACB and HN(CO)CACB experiments (Clore and Gronenborn, Methods Enzymol. 239: 349-363, 1994; Muhandiram, et al., J. Magn. Reson. B103: 208-216, 1994) were performed. To confirm the type of amino acid assignment, C(CO)NH-TOCSY (Grzesiek, et al., J. Magnetic Resonance, B101: 114-119, 1993) was used. Side chain resonances were assigned from the following experiments: HBHA(CO)NH (Clore and Gronenborn, Methods Enzymol. 239: 349-363, 1994), HC(CO)NH-TOCSY (Grzesiek, et al., J. Magnetic Resonance. B101: 114-119, 1993) for the ^15N/^13C sample in 90% H2O, 10% D2O, HCCH-TOCSY for the ^15N/^13C-labeled sample in D2O, and ^15N-TOCSY-HSQC with the uniformly labeled ^15N protein.
Inhibition by the CD40-derived peptide was also observed in the ^1H-^15N HSQC studies of N-TRADD/C-TRAF2 binding. At stoichiometric concentrations of N-TRADD and C-TRAF2 (110 μM each), HSQC peaks for N-TRADD have broadened out due to binding to C-TRAF2 as described above.

Test [3] addresses T2, N-TRADD/C-TRAF2 interaction (Homo sapiens, UniProt Q12933).
T2 construct: The C-TRAF2 (residues 262-501) used in the instant HSQC titration experiment; initiator Met added before residue 262 (N); 6xHis (C); made in house; host or cells: C-TRAF2: baculovirus in 'Tini' cells; N-TRADD: E. coli BL-21
T2 sequence (Q12933 262-501): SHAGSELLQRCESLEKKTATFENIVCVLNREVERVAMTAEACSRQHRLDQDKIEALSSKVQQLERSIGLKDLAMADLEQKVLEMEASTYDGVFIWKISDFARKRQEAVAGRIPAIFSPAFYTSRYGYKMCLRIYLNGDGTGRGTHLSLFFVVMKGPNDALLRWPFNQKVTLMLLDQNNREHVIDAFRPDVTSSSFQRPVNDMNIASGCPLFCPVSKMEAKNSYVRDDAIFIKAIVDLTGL
The test can be described thus: BIAcore competition for binding of N-TRADD to C-TRAF2. As for the experimental part: (§2) C-TRAF2 and N-TRADD binding studies: The affinity of wild-type N-TRADD and C-TRAF2 was measured by surface plasma resonance using a BIAcore 2000 system (Pharmacia Biosensor AB). C-TRAF2 (residues 262-501) was purified and coupled to a sensor chip CM5 by amine coupling at pH=5.0 to get about 800, 1500 and 5500 response units on three different flow cells. A constant flow (20 μL/min) of purified N-TRADD protein in 10 mM Hepes, pH=7.4, 150 mM NaCl, 3.4 mM EDTA and 0.05% P20 surfactant at 8 different concentrations from 650 μM to 84 μM was applied over the protein coupled chip for 2 min to analyze the association. Binding constants were obtained from the BIAevaluation software.
In the instant studies, the interaction between a 13-mer peptide derived from CD40 (a longer version of CD40 -pl, with sequences SNTAAPVQETLHG (SEQ ID NO:2)) with C-TRAF2 was characterized, as well as its effect on the N-TRADD/C-TRAF2 interaction. […] In addition the peptide was also able to compete for the binding of N-TRADD to C-TRAF2, with an IC50 of ˜1 mM.
In addition to this 13-mer peptide, the effect of the CD40-p1 peptide (McWhirter et al, Proc. Natl. Acad. Sci. USA 96: 8408-8413, 1999) on the interaction between N-TRADD and C-TRAF2 was also evaluated. […]

The target of another test is T3, N-TRADD/C-TRAF2 binding (Homo sapiens, UniProt Q12933).
T3 construct: The C-TRAF2 (residues 262-501) used in the instant HSQC titration experiment; initiator Met added before residue 262 (N); 6xHis (C); made in house; host or cells: C-TRAF2: baculovirus in 'Tini' cells; N-TRADD: E. coli BL-21
T3 sequence (Q12933 262-501): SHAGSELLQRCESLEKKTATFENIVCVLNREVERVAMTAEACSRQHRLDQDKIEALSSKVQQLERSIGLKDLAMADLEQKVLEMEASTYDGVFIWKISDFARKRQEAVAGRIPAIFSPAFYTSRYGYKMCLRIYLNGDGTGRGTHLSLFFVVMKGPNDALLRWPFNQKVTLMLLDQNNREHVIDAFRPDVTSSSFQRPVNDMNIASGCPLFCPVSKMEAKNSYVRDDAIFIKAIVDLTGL
The test can be described thus: 1H-15N HSQC NMR study of N-TRADD/C-TRAF2 binding, inhibition by peptide. Particulars: peptide 3 mM; N-TRADD and C-TRAF2 110 μM each; data not shown. As to the method: as §1
The ^1H-^15N HSQC of N-TRADD was used as a tool to map the binding interface with C-TRAF2, since the chemical shifts of contact residues will be perturbed upon complex formation. […] The C-TRAF2 (residues 262-501) used in the instant HSQC titration experiment (at 120 μM) is also a trimer, as determined by size exclusion chromatography. […] N-TRADD Mutagenesis and interactions between C-TRAF2 and N-TRADD: In order to further characterize the amino acids in N-TRADD that are involved in C-TRAF2 recognition, site directed mutants of N-TRADD were prepared and evaluated for their ability to bind C-TRAF2. […]

Test [4] addresses T4, C-TRAF2 (residues 262 to 501 of human TRAF2) (human, UniProt Q12933 262-501).
T4 construct: range 262-501; Expressed by baculovirus; Amine-coupled to a CM5 chip in the BIAcore experiments; also called C-terminal domain of TRAF2; C-TRAF2 (residues 262-501)
T4 sequence: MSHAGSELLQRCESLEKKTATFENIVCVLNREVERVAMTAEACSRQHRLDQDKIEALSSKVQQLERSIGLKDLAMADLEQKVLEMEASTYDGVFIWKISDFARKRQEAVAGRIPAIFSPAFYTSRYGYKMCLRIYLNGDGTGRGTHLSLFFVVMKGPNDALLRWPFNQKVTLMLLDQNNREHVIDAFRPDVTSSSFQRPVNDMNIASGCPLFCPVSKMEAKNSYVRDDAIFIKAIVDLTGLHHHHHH
The test can be described thus: BIAcore (SPR), C-TRAF2 amine-coupled to CM5 chip, N-TRADD in flow. As for the experimental part:
as §2, with “µL/min)” for “μL/min)”, “µM” for “μM”

Test [5] deals with T4, C-TRAF2 (residues 262 to 501 of human …). The test can be described thus: BIAcore surface plasmon resonance, C-TRAF2 (printed TF2-C) coupled to the CM5 chip, N-TRADD mutant in the flow.
The target is the same in test [6]. Put plainly: BIAcore (SPR), C-TRAF2 on chip. As for the experimental part: as §2, with “µL/min)” for “μL/min)”, “µM” for “μM”
Test [7] shares this target. Put plainly: inhibition of the N-TRADD/C-TRAF2 interaction; competitor N-TRADD.
Test [8] has the same target. The test can be described thus: BIAcore competition; competitor N-TRADD.
The target of test [9] is B1. Put plainly: 1H-15N HSQC NMR.
Test [10] has as its target T4, C-TRAF2 (residues 262 to 501 of human …). Put plainly: BIAcore (SPR).

Ends that are not written are not given here.

The results in this text go back to patent US7460961B2, “N-TRADD active site and uses thereof” (Genetics Institute, LLC, priority 2000, dated 2008).

By Kd is commonly meant the equilibrium constant for the complex coming apart. Higher therefore signals lower affinity. By IC50 is commonly meant the midpoint of a concentration-inhibition curve. A high value points to weaker potency in that assay.

“SNTAAPVQETLHG-OH [13-mer peptide derived from CD40, SNTAAPVQETLHG-OH]”: the “interaction between peptide and N-TRADD by BIAcore” value at N-TRADD [1] was “lack of interaction”. On N-TRADD [2], the “interaction between N-TRADD and peptide (changes in 1H-15N HSQC of N-TRADD)” value is given as “No interaction”. Moreover, the “inhibition of the interaction between N-TRADD and C-TRAF2 (in words)” value in test [3] was “inhibited”. For the same molecule, the “effect on 1H-15N HSQC spectrum of N-TRADD broadened by C-TRAF2” value on N-TRADD/C-TRAF2 binding is “restored the ^1H-^15N HSQC spectrum of N-TRADD alone”.
In [4], B1 returned a Kd of 6 µM.

B2: N-TRADD H65A mutant protein (other)
chain: MAAGQNGHEEWVGSAYLFVESSLDKVVLSDAYAHPQQKVAVYRALQAALAESGGSPDVLQMLKIARSDPQLIVQLRFCGRQPCGRFLRAYREGALRAALQRSLAAALAQHSVPLQLELRAGAERLDALLADEERCLSCILAQQPDRLRDEELAELEDALRNLKCGSGAR
notes: Single point mutant of the N-TRADD (1-169) construct; not shown: His tag after aa169 of the N-TRADD construct
With B2, the binding result in test [5] is given as “binds”.

B3: N-TRADD D149A mutant protein (other)
chain: MAAGQNGHEEWVGSAYLFVESSLDKVVLSDAYAHPQQKVAVYRALQAALAESGGSPDVLQMLKIHRSDPQLIVQLRFCGRQPCGRFLRAYREGALRAALQRSLAAALAQHSVPLQLELRAGAERLDALLADEERCLSCILAQQPDRLRAEELAELEDALRNLKCGSGAR
notes: as for B2
Take B3: the binding result in test [5] was “binds”.

B4: N-TRADD Y16A mutant protein (other)
chain: MAAGQNGHEEWVGSAALFVESSLDKVVLSDAYAHPQQKVAVYRALQAALAESGGSPDVLQMLKIHRSDPQLIVQLRFCGRQPCGRFLRAYREGALRAALQRSLAAALAQHSVPLQLELRAGAERLDALLADEERCLSCILAQQPDRLRDEELAELEDALRNLKCGSGAR
notes: as for B2
On to B4, for which, in [6], the “fold reduction in C-TRAF2 affinity against wild-type N-TRADD” value is around 16 fold.

B5: N-TRADD I72A mutant protein (other)
chain: MAAGQNGHEEWVGSAYLFVESSLDKVVLSDAYAHPQQKVAVYRALQAALAESGGSPDVLQMLKIHRSDPQLAVQLRFCGRQPCGRFLRAYREGALRAALQRSLAAALAQHSVPLQLELRAGAERLDALLADEERCLSCILAQQPDRLRDEELAELEDALRNLKCGSGAR
notes: also called 172A (so in the source); not shown: His tag after aa169 of the N-TRADD construct
In the case of B5, in test [5], the binding result was “binds”.

B6: CD40-p1 peptide (YPIQET) (peptide)
peptide: YPIQET
notes: Peptide of McWhirter et al; also called CD40-pl; 6-mer peptide
In [7], B6 gave an IC50 of around 200 µM.

B7: 13-mer peptide derived from CD40 (SNTAAPVQETLHG-OH) (peptide)
peptide: SNTAAPVQETLHG-OH
notes: Synthesised by Fmoc solid-phase methods; printed with a free C-terminus (-OH); also called CD40 peptide; CD40-derived peptide
In the case of B7, in [8], the IC50 is around 1000 µM. For the same molecule, the binding result in test [9] was “no binding”. For the same molecule, the Kd in test [10] is around 1000 µM.
